Measurements reported in US20200079833A1 (AstraZeneca / MedImmune, published 2020).
Starred links: 1 amine or outer side, 2 acyl side, 3 side chain; linkers in the order of their positions; H or OH if unused. Non-standard residues stand in square brackets, D forms with d. Groups on a side chain read outwards from the residue. Primed or numbered codes have the meaning given here. No end group written: not given here. *: point of attachment. γGlu = O=C(O)[C@H](CCC(=O)[*:2])N[*:1]; Stearoyl = CCCCCCCCCCCCCCCCCC(=O)*; αMeF = C[C@](N)(Cc1ccccc1)C(=O)O; αMeK = C[C@](N)(CCCCN)C(=O)O; Lauroyl = CCCCCCCCCCCC(=O)*; αMeS = C[C@](N)(CO)C(=O)O; PEG2′ = not defined here; Aib = CC(C)(N)C(=O)O

T1: glucose-dependent insulinotropic peptide (gastric inhibitory polypeptide) receptor (GIPR) (human, UniProt P48546 22-466)
T1 sequence (looked up): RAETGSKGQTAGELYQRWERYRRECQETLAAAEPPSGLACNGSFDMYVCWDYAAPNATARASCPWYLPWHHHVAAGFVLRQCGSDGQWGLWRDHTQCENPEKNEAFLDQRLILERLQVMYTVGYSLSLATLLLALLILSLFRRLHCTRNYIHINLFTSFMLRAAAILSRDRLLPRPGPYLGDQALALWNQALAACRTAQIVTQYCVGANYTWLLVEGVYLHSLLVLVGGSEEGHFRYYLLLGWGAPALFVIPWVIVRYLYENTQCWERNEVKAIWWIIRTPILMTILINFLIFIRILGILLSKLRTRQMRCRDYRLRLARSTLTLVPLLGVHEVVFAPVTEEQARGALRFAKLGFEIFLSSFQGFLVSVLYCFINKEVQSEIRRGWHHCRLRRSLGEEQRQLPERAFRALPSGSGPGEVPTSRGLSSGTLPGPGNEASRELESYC

B1: SEQ ID NO 128 (peptide)
peptide: H[Aib]EGS[αMeF]TSDV[αMeS]S[αMeF]LEGEAAK([γGlu-Lauroyl])E[αMeF]IA[αMeF]VV[αMeK]GG-NH2
modifications: N-terminus assumed
SMILES: CCCCCCCCCCCC(=O)N[C@@H](CCC(=O)NCCCC[C@H](NC(=O)[C@H](C)NC(=O)[C@H](C)NC(=O)[C@H](CCC(=O)O)NC(=O)CNC(=O)[C@H](CCC(=O)O)NC(=O)[C@H](CC(C)C)NC(=O)[C@](C)(Cc1ccccc1)NC(=O)[C@H](CO)NC(=O)[C@](C)(CO)NC(=O)[C@@H](NC(=O)[C@H](CC(=O)O)NC(=O)[C@H](CO)NC(=O)[C@@H](NC(=O)[C@](C)(Cc1ccccc1)NC(=O)[C@H](CO)NC(=O)CNC(=O)[C@H](CCC(=O)O)NC(=O)C(C)(C)NC(=O)[C@@H](N)Cc1c[nH]cn1)[C@@H](C)O)C(C)C)C(=O)N[C@@H](CCC(=O)O)C(=O)N[C@@](C)(Cc1ccccc1)C(=O)N[C@H](C(=O)N[C@@H](C)C(=O)N[C@@](C)(Cc1ccccc1)C(=O)N[C@H](C(=O)N[C@H](C(=O)N[C@@](C)(CCCCN)C(=O)NCC(=O)NCC(N)=O)C(C)C)C(C)C)[C@@H](C)CC)C(=O)O

Target: GLP-1 receptor (GLP-1R) (human, UniProt P43220 24-463)
Test: cell-based or functional assay

| cAMP Mean pM GLP-1R | cAMP Primary assay EC50 GLP-1R n1 | cAMP Primary assay EC50 GLP-1R n2 | Binder |
| --- | --- | --- | --- |
| 25200 pM | 25 nM | 25.2 nM | H[Aib]EGS[αMeF]K([PEG2′-PEG2′-γGlu-Stearoyl])SDV[αMeS]S[αMeF]LEGEAA[αMeK]E[αMeF]IA[αMeF]VV[αMeK]GG-NH2 [SEQ ID NO 122] |
| 25 pM | 0.026 nM | 0.0244 nM | H[Aib]EGS[αMeF]TSDV[αMeS]K([PEG2′-PEG2′-γGlu-Stearoyl])[αMeF]LEGEAA[αMeK]E[αMeF]IA[αMeF]VV[αMeK]GG-NH2 [SEQ ID NO 117] |
| 24900 pM | 25 nM | 24.9 nM | H[Aib]EK([PEG2′-PEG2′-γGlu-Stearoyl])S[αMeF]TSDV[αMeS]S[αMeF]LEGEAA[αMeK]E[αMeF]IA[αMeF]VV[αMeK]GG-NH2 [SEQ ID NO 125] |
| 17 pM | 0.018 nM | 0.0157 nM | H[Aib]EGS[αMeF]TSDK([PEG2′-PEG2′-γGlu-Stearoyl])[αMeS]S[αMeF]LEGEAA[αMeK]E[αMeF]IA[αMeF]VV[αMeK]GG-NH2 [SEQ ID NO 119] |
| 25100 pM | 25 nM | 25.1 nM | H[Aib]EGK([PEG2′-PEG2′-γGlu-Stearoyl])[αMeF]TSDV[αMeS]S[αMeF]LEGEAA[αMeK]E[αMeF]IA[αMeF]VV[αMeK]GG-NH2 [SEQ ID NO 124] |
| 6 pM | 0.0061 nM | 0.00507 nM | H[Aib]EGS[αMeF]TSDV[αMeS]S[αMeF]LEGK([PEG2′-PEG2′-γGlu-Stearoyl])AA[αMeK]E[αMeF]IA[αMeF]VV[αMeK]GG-NH2 [SEQ ID NO 112] |
| 18.2 pM | 0.015 nM | 0.021 nM | B1 |
| 3640 pM | 4.1 nM | 3.13 nM | H[Aib]EGS[αMeF]TSK([PEG2′-PEG2′-γGlu-Stearoyl])V[αMeS]S[αMeF]LEGEAA[αMeK]E[αMeF]IA[αMeF]VV[αMeK]GG-NH2 [SEQ ID NO 120] |

Target: glucagon receptor (GCGR) (human, UniProt P47871 26-477)
Sequence (P47871 26-477): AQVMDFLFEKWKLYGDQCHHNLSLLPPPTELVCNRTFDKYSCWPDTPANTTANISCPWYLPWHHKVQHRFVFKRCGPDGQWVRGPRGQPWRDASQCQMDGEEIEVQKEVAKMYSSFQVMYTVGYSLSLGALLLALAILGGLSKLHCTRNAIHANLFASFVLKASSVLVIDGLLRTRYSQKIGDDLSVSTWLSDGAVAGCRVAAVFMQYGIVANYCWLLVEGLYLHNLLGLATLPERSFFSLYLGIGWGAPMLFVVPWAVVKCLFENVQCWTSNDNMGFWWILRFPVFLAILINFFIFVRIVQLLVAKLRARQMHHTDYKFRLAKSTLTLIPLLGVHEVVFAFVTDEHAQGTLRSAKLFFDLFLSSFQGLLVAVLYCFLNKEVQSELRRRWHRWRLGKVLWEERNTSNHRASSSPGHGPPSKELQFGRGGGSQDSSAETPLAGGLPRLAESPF
Test: cell-based or functional assay

| cAMP Primary assay EC50 Gluc-R | cAMP Primary assay EC50 Gluc-R (2nd) | Binder |
| --- | --- | --- |
| 25 nM | 25.2 nM | H[Aib]EGS[αMeF]K([PEG2′-PEG2′-γGlu-Stearoyl])SDV[αMeS]S[αMeF]LEGEAA[αMeK]E[αMeF]IA[αMeF]VV[αMeK]GG-NH2 [SEQ ID NO 122] |
| 25 nM | 25.1 nM | H[Aib]EGS[αMeF]TSDV[αMeS]K([PEG2′-PEG2′-γGlu-Stearoyl])[αMeF]LEGEAA[αMeK]E[αMeF]IA[αMeF]VV[αMeK]GG-NH2 [SEQ ID NO 117] |
| 25 nM | 24.9 nM | H[Aib]EK([PEG2′-PEG2′-γGlu-Stearoyl])S[αMeF]TSDV[αMeS]S[αMeF]LEGEAA[αMeK]E[αMeF]IA[αMeF]VV[αMeK]GG-NH2 [SEQ ID NO 125] |
| 25 nM | 25.2 nM | H[Aib]EGS[αMeF]TSDK([PEG2′-PEG2′-γGlu-Stearoyl])[αMeS]S[αMeF]LEGEAA[αMeK]E[αMeF]IA[αMeF]VV[αMeK]GG-NH2 [SEQ ID NO 119] |
| 25 nM | 25.1 nM | H[Aib]EGK([PEG2′-PEG2′-γGlu-Stearoyl])[αMeF]TSDV[αMeS]S[αMeF]LEGEAA[αMeK]E[αMeF]IA[αMeF]VV[αMeK]GG-NH2 [SEQ ID NO 124] |
| 25 nM | 25.4 nM | H[Aib]EGS[αMeF]TSDV[αMeS]S[αMeF]LEGK([PEG2′-PEG2′-γGlu-Stearoyl])AA[αMeK]E[αMeF]IA[αMeF]VV[αMeK]GG-NH2 [SEQ ID NO 112] |
| 28 nM | 28 nM | B1 |
| 25 nM | 25.3 nM | H[Aib]EGS[αMeF]TSK([PEG2′-PEG2′-γGlu-Stearoyl])V[αMeS]S[αMeF]LEGEAA[αMeK]E[αMeF]IA[αMeF]VV[αMeK]GG-NH2 [SEQ ID NO 120] |

Target: T1, glucose-dependent insulinotropic …
Test: cell-based or functional assay

| cAMP Primary assay EC50 GIP-R | cAMP Primary assay EC50 GIP-R (2nd) | Binder |
| --- | --- | --- |
| 25 nM | 25.2 nM | H[Aib]EGS[αMeF]K([PEG2′-PEG2′-γGlu-Stearoyl])SDV[αMeS]S[αMeF]LEGEAA[αMeK]E[αMeF]IA[αMeF]VV[αMeK]GG-NH2 [SEQ ID NO 122] |
| 25 nM | 25.1 nM | H[Aib]EGS[αMeF]TSDV[αMeS]K([PEG2′-PEG2′-γGlu-Stearoyl])[αMeF]LEGEAA[αMeK]E[αMeF]IA[αMeF]VV[αMeK]GG-NH2 [SEQ ID NO 117] |
| 25 nM | 24.9 nM | H[Aib]EK([PEG2′-PEG2′-γGlu-Stearoyl])S[αMeF]TSDV[αMeS]S[αMeF]LEGEAA[αMeK]E[αMeF]IA[αMeF]VV[αMeK]GG-NH2 [SEQ ID NO 125] |
| 25 nM | 25.2 nM | H[Aib]EGS[αMeF]TSDK([PEG2′-PEG2′-γGlu-Stearoyl])[αMeS]S[αMeF]LEGEAA[αMeK]E[αMeF]IA[αMeF]VV[αMeK]GG-NH2 [SEQ ID NO 119] |
| 25 nM | 25.1 nM | H[Aib]EGK([PEG2′-PEG2′-γGlu-Stearoyl])[αMeF]TSDV[αMeS]S[αMeF]LEGEAA[αMeK]E[αMeF]IA[αMeF]VV[αMeK]GG-NH2 [SEQ ID NO 124] |
| 25 nM | 25.4 nM | H[Aib]EGS[αMeF]TSDV[αMeS]S[αMeF]LEGK([PEG2′-PEG2′-γGlu-Stearoyl])AA[αMeK]E[αMeF]IA[αMeF]VV[αMeK]GG-NH2 [SEQ ID NO 112] |
| 28 nM | 28 nM | B1 |
| 25 nM | 25.3 nM | H[Aib]EGS[αMeF]TSK([PEG2′-PEG2′-γGlu-Stearoyl])V[αMeS]S[αMeF]LEGEAA[αMeK]E[αMeF]IA[αMeF]VV[αMeK]GG-NH2 [SEQ ID NO 120] |
